Legend:
[1] = biological target: T1, ZZ domain of p300 (p300ZZ) (human); experiment: value cited from earlier reference
T1 chain: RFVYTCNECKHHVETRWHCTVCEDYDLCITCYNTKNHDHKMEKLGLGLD

[2] = biological target: T2, REEE peptide (mimetic of the Nt-R cargo degradation signal)
T2 peptide: REEE

[3] = biological target: T3, ZZ domain of HERC2 (HERC2ZZ, aa 2702–2755 with additional tryptophan at the C-terminus) (human, UniProt O95714 2702-2755); experiment: value cited from earlier reference
T3 chain: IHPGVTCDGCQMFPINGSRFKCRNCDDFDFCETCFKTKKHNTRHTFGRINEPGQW

B1: histone H3_(1–12) peptide (aa 1–12 of H3) (peptide)
peptide: ARTKQTARKSTG
modifications: zinc-bound (2 Zn2+ expected for a ZZ finger); limits from the UniProt ZZ-type feature, construct limits not given
Kd [1]: 8.8 µM

B2: p62 ZZ (protein)
chain: not shown
Kd [2]: 1.9 µM

ARTKQTARKSTG
Kd [3]: 15 µM

From PMC9001736 (2022)
